Results: publication PMC12192683, “The LDL receptor-related protein 1 (LRP1) facilitates ACE2-mediated endocytosis of SARS-CoV2 spike protein-containing pseudovirions” (The Journal of Biological Chemistry, 2025)

B1: LRP1 cluster IV (domain or fragment)
chain: not shown
B2: LRP1 cluster III (domain or fragment)
chain: not shown
B3: LRP1 cluster II (domain or fragment)
chain: PQCQPGEFACANSRCIQERWKCDGDNDCLDNSDEAPALCHQHTCPSDRFKCENNRCIPNRWLCDGDNDCGNSEDESNATCSARTCPPNQFSCASGRCIPISWTCDLDDDCGDRSDESASCAYPTCFPLTQFTCNNGRCININWRCDNDNDCGDNSDEAGCSHSCSSTQFKCNSGRCIPEHWTCDGDNDCGDYSDETHANCTNQATRPPGGCHTDEFQCRLDGLCIPLRWRCDGDTDCMDSSDEKSCEGVTHVCDPSVKFGCKDSARCISKAWVCDGDNDCEDNSDEENCESLACRPPSHPCANNTSVCLPPDKLCDGNDDCGDGSDEGELC
B4: Soluble form of the VLDL receptor containing repeats 1 to 8 (domain or fragment)
chain: not shown
notes: also called VLDLR 1 to 8; recombinant soluble VLDLR

biological target: T1, SARS-CoV-2 spike protein S1 subunit (Val16-Arg685) fused to the Fc region of mouse IgG1 (SARS-CoV-2, UniProt P0DTC2 16-685); experiment: SPR; Biacore 3000; receptor amine-coupled to CM5 chip; ligand flowed in HBS-P (0.01 M HEPES pH 7.4, 0.15 M NaCl, 0.005% P20) with 1 mM CaCl2, 10 ul/min, 25 C; kinetic fit to a 1:1 Langmuir model; settings: both partners purified
T1 construct: The SPR methods name S1-mFc for LRP1, VLDLR and LRP2; I took it as the S1 subunit of all SPR experiments; also called S1-mFc; Spike S1 subunit; source: bought: Sino Biological; not shown: Fc (mouse IgG1), C-terminal, kept

Binder	Kd	koff	kon
B1	0.067 µM	0.00066 s⁻¹	9800 M⁻¹ s⁻¹
B2	0.022 µM	0.00027 s⁻¹	12000 M⁻¹ s⁻¹
B3	0.033 µM	0.00042 s⁻¹	13000 M⁻¹ s⁻¹
B4	0.005 µM	0.00027 s⁻¹	110000 M⁻¹ s⁻¹
